Measurements from patent US20130196320A1, “METHOD FOR IMPROVING CLEAVAGE OF DNA BY ENDONUCLEASE SENSITIVE TO METHYLATION” (CELLECTIS, priority 2010, published 2013).
Where two headings read alike, the source gives them in different places.

Assays:
C1234 DNA target = experiment: In vitro binding assay, fluorescence anisotropy of fluorescein-labeled C1234 duplex
Experimental: FIG. 4: Spectrofluorimetric titration of fluorescein-labeled C1234 by I-Cre I wild type. 25 nM of C1234 duplex was incubated with increasing concentrations of I-Cre I [from 0 to 400 nM, only 0-80 nM shown] in binding buffer (10 mM Tris-HCl, 400 mM NaCl, 10 mM CaCl2, 10 mM DTT, pH8) at 25° C. After 30 minutes incubation, the fluorescence anisotropy of the mixture was recorded with a Pherastar Plus (BMG Labtech) operating in fluorescence polarization end point mode with excitation and emission wavelengths set to 495 and 520 nm respectively. Normalized fluorescence anisotropy is plotted as a function of active I-Cre I concentration. Apparent dissociation constant were determined by fitting raw data by an hyperbolic function (Ax=(A∞*[Meganuclease])/(Kd+[Meganuclease]) with Ax, the fluorescence anisotropy value obtained at a given meganuclease concentration, A∞, the fluorescence anisotropy value obtained at saturating concentration of meganuclease and Kd the dissociation constant of the equilibrium studied).
Fluorescein labeled C1234 oligonucleotides were synthesized and HPLC-purified by Eurogentec. To prepare C 1234 duplex corresponding to I-Cre I double strand DNA wild type target, C1234 forward (SEQ ID NO: 31, “a” strand below) labeled with Fluorescein on its 5′ end was mixed with 1 equivalent of C1234_reverse (SEQ ID NO: 32, “b” strand below) in 100 mM Tris-HCl, 50 mM EDTA, 150 mM NaCl, pH8. The mixture was heated to 95° C. for 2 min and then cooled down to 25° C. over 1 hour. C1234 duplex was eventually purified by anion exchange chromatography using a miniQ PE column (GE healthcare) pre-equilibrated with buffer A (20 mM Tris-HCl, pH7.4). Single stranded oligonucleotides and other contaminants were first discarded using a 0 to 360 mM NaCl step gradient and elution of pure C1234 duplex was performed with a 360-1000 mM NaCl linear gradient (5 column volumes). C 1234 duplex and fluorescein final concentrations were assessed by spectrophotometry using their respective extinction coefficients ε260nm=62900 M^−1 cm^−1 and ε495nm=83000 M^−1 cm^−1. As expected, a ratio [C1234 duplex]/[fluorescein]˜1 was obtained. The same procedure was used to prepare the different methylated forms of C 1234 duplex (C 1234_Me full composed of SEQ ID NO: 35+SEQ ID NO: 38, C1234_Me-6a/-5b composed of SEQ ID NO: 33+SEQ ID NO: 36, C1234_Me-3a/-2b composed of SEQ ID NO: 34+SEQ ID NO: 37, C1234_Me-3a composed of SEQ ID NO: 34+SEQ ID NO: 32, C1234_Me-2b composed of SEQ ID NO: 31+SEQ ID NO: 37, respectively where “a” and “b” designate each of the DNA strands; for example C1234 Me-6a/-5b is a duplex with methylations at position −6 on strand “a” and at position −5 on strand “b”, respectively) and the random target corresponding to a stretch of 12 GA repeats, (forward, SEQ ID NO: 39 and reverse, SEQ ID NO: 40). To investigate the binding of I-Cre I to C1234 duplex, 25 nM of C1234 duplex was incubated with increasing concentrations of I-Cre I (from 0 to 400 nM) in binding buffer (10 mM Tris-HCl, 400 mM NaCl, 10 mM CaCl2, 10 mM DTT, pH8) at 25° C. After 30 minutes incubation, the fluorescence anisotropy of the mixture was recorded with a Pherastar Plus (BMG Labtech) operating in fluorescence polarization end point mode with excitation and emission wavelengths set to 495 and 520 nm respectively. Apparent dissociation constants were determined by fitting raw data by an hyperbolic function (Ax=(A∞*[Meganuclease])/(Kd+[Meganuclease]) with Ax, the fluorescence anisotropy value obtained at a given meganuclease concentration, A∞, the fluorescence anisotropy value obtained at saturating concentration of meganuclease and Kd the dissociation constant of the equilibrium studied).

C1221 DNA target = experiment: In vitro binding assay, fluorescence anisotropy of fluorescein-labeled C1221 duplex; conditions: read-out: [I-CreI]50, apparent dissociation constant
Experimental: FIG. 1: Spectrofluorimetric titration of fluorescein-labeled C1221 by I-CreI. 50 nM C1221, containing either 0 or 4 methylated CG on both strands, was incubated with increasing concentrations of I-CreI (from 0 to 1.5 μM) in binding buffer (10 mM Tris-HCl, 150 mM NaCl, 10 mM CaCl2, 10 mM DTT, pH8) at 25° C. After 30 minutes incubation, the fluorescence anisotropy of the mixture was recorded and then plotted as a function of I-CreI concentration.
Fluorescein labeled C1221 oligonucleotides were synthesized and HPLC-purified by Eurogentec. […] C1221 duplex and fluorescein final concentrations were assessed by spectrophotometry using their respective extinction coefficients ε260nm=62900 M^−1 cm^−1 and ε495nm=83000 M^−1 cm^−1. […]
To investigate the binding of I-CreI to C1221 duplex, 50 nM of C1221 duplex was incubated with increasing concentrations of I-CreI (from 0 to 1.5 μM) in binding buffer (10 mM Tris-HCl, 150 mM NaCl, 10 mM CaCl2, 10 mM DTT, pH8) at 25° C. After 30 minutes incubation, the fluorescence anisotropy of the mixture was recorded with a Pherastar Plus (BMG Labtech) operating in fluorescence polarization end point mode with excitation and emission wavelengths set to 495 and 520 nm respectively. […] [I-CreI]50 is defined as the concentration of 1-CreI needed to reach 50% of the final fluorescence anisotropy.

B1: I-CreI: wild-type I-CreI meganuclease (… homing endonuclease), SEQ ID NO: 1, recombinant Cterm His-tag (protein, listed as Chlamydomonas reinhardtii)
chain: MNTKYNKEFLLYLAGFVDGDGSIIAQIKPNQSYKFKHQLSLTFQVTQKTQRRWFLDKLVDEIGVGYVRDRGSVSDYILSEIKPLHNFLTQLQPFLKLKQKQANLVLKIIEQLPSAKESPDKFLEVCTWVDQIAALNDSKTRKTTSETVRAVLDSLSEKKKSSP
modifications: C-terminal His-tag
C1234 DNA target; C1234 Me-5b/-2b
  affinity compared with unmethylated C1234: much lower affinity
C1234 DNA target; C1234_Me full (fully methylated)
  Kd: > 1 µM
C1234 DNA target; C1234_Me full vs unmethylated
  affinity for fully methylated C1234 lower than for unmethylated C1234: at least 400 times
C1234 DNA target; C1234_Me-2b
  Kd: 0.0408 µM
C1234 DNA target; C1234_Me-5b
  Kd: 0.024 µM
C1234 DNA target; C1234_Me-5b/-2b
  Kd: > 1 µM
C1234 DNA target; C1234_Me-6a/-3a
  Kd: ≤ 0.0025 µM
C1234 DNA target; C1234 methylated in position −2b
  factor by which methylation affected affinity with respect to unmethylated C1234: ≤ 10
C1234 DNA target; C1234 methylated in position −5b
  factor by which methylation affected affinity with respect to unmethylated C1234: ≤ 10
C1234 DNA target; unmethylated C1234
  Kd: ≤ 0.0025 µM
C1221 DNA target; fully methylated C1221 (4 methylated CG on both strands)
  Kd: ~1 µM
C1221 DNA target; unmethylated C1221
  Kd: 0.03 µM
